In US20070128190A1 (GLENMARK PHARMACEUTICALS S A, published 2007):

Legend:
[1] = target: T1, human platelet α2β1 integrin (immobilized on microtiter plates) (human, UniProt P17301 30-1181; P05556 21-798); test: equilibrium binding of Eu-TMC-2206 to human platelet α2β1-coated plate, Scatchard
T1 construct: plates custom-coated with human platelet α2β1 by GTI Inc; also called immobilized α2β1 integrin; α2β1-coated plates
Protocol: Wells in a 96 well microtiter plate were coated with platelet α2β1-integrin (custom-coated with human platelet α2β1 by GTI Inc., Wis.) and then blocked with nonfat milk. […] After concentration in prewashed MicroSep concentrators (30-kDa cutoff; Pall Life Sciences at 9500 rpm (7000×g) in a JA-20 rotor (Beckman Instruments, Inc.) for 20 minutes at 4° C.), antibodies were adjusted to 4.0 mg/mL with PBS containing a final concentration of 100 mM NaHCO₃, pH 9.3. The mAb/bicarbonate mixture (0.250 mL) was gently mixed into a vial containing 0.2 mg N¹-(p-isothiocyanatobenzyl)-diethylenetriamine-N¹,N²,N³N³-tetraacetic acid chelated with Eu³⁺ (Eu-N1-ITC; Perkin Elmer Life Sciences) and reacted overnight at 4° C. without stirring. Each labeled antibody mixture was applied to a separate PD-10 column (GE Biosciences, Piscataway, N.J.) pre-equilibrated with Running Buffer (50 mM Tris, pH 7.4 and 138 mM NaCl). Fractions (0.5 mL) were collected and assayed for total protein (Bradford reagent; Bio-Rad Laboratories, Hercules, Calif.) using a SpectraMax 384 absorbance plate reader and for europium after 1:10.000 dilution in DELFIA Enhancement Solution (Perkin-Elmer) by time-resolved fluorescence (TRF) using a Victor2 multi-label plate reader (Perkin Elmer). […]

[2] = target: T2, GST-human α2 I domain fusion protein (human, UniProt P17301 153-368); test: ELISA, GST fusion protein on immobilized TMC-2206, Kd estimated from EC50
T2 construct: the reverse primer ends at ...SIEGTV; also called GST-α2 I domain; hα2I; not shown: glutathione S-transferase tag encoded by vector pGEX-2TK
T2 sequence: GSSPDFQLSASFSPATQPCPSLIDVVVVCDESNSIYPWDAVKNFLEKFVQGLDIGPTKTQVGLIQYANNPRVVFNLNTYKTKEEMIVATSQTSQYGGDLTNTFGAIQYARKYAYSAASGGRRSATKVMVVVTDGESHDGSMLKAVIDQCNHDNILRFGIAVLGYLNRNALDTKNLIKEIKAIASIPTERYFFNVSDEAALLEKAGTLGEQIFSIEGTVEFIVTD
Protocol: The fusion proteins were then expressed and purified as described above for the human GST-α2 I domain fusion protein. […] Therefore, these and the primate fusion proteins were further purified by size exclusion chromatography on a Sephadex 75 10/30 (GE-Amersham) column (primate) by FPLC on an Akta-Basic FPLC system (GE-Amersham) to yield a monomeric fraction. […] The Kᵢ assays were performed as described above in Example 2. […] Plates were sealed and coating occurred overnight at 4° C. The next morning, the plates were washed twice with TBS solution and then blocked using 200 μL of the blocking solution described above for 1 hour at room temperature with shaking. After blocking, the blocking solution was removed but the wells were not washed. Instead, a serial dilution of GST fusion protein was made, added to the wells and then incubated for 2 hours at room temperature with shaking. The wells were then aspirated and a TBS washing buffer applied for 5 minutes at room temperature. The washing step was repeated twice more before the secondary antibody was applied. The secondary antibody step consisted of Amersham's HRP-conjugated rabbit anti-GST antibody diluted 1:2000 in blocking buffer. […] The reaction within the wells was then read and quantified by spectrophotometric absorption using the Molecular Dynamics plate reader and associated Softmax software, respectively. […]

GST = target: T3, GST (UniProt P08515 1-218 = GST); test: ELISA, GST on immobilized TMC-2206
T3 construct: also called GST fusion protein (negative control)
T3 sequence (P08515 whole entry, the tested form may be a part): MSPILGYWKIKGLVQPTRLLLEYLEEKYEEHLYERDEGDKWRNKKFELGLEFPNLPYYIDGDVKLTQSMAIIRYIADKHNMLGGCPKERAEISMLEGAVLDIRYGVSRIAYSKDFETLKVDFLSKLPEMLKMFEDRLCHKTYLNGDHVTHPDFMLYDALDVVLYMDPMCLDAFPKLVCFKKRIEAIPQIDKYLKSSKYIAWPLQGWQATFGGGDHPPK

[3] = target: T1, human platelet α2β1 integrin …; test: competition with Eu-TMC-2206 on human platelet α2β1-coated plate
Protocol: Each labeled antibody mixture was applied to a separate PD-10 column (GE Biosciences, Piscataway, N.J.) pre-equilibrated with Running Buffer (50 mM Tris, pH 7.4 and 138 mM NaCl). Fractions (0.5 mL) were collected and assayed for total protein (Bradford reagent; Bio-Rad Laboratories, Hercules, Calif.) using a SpectraMax 384 absorbance plate reader and for europium after 1:10.000 dilution in DELFIA Enhancement Solution (Perkin-Elmer) by time-resolved fluorescence (TRF) using a Victor2 multi-label plate reader (Perkin Elmer). The fractions that were positive for both protein and Eu label were pooled and applied to new PD-10 columns and samples collected and assayed for total protein and for europium content by TRF calibrated against a europium standard solution (Perkin-Elmer) to calculate the fluor: protein ratio. […] After incubating the sealed plates for 1 hr at 37° C. to allow binding to reach equilibrium, 2 μL samples were transferred from each well into a fresh well containing DELFIA Enhancement Solution (100 μL/well; Perkin-Elmer) for the measurement of free (unbound) label. Enhancement Solution (100 μL/well) was added to the emptied wells for the measurement of bound label. The plate was shaken (Titer Plate Shaker speed setting of 5 for 5 minutes at room temperature) and time-resolved fluorescent (TRF) intensities were read using a Victor2 multi-label plate reader (Perkin-Elmer Wallac, Boston, Mas.).

[4] = target: rat α2β1 integrin on rat blood cells (rat, UniProt A0A0G2K470 27-1178; P49134 21-798); test: cell-based or functional assay
rat α2β1 integrin on rat blood cells, sequence (chain, as listed by the source, chain 1 of 2): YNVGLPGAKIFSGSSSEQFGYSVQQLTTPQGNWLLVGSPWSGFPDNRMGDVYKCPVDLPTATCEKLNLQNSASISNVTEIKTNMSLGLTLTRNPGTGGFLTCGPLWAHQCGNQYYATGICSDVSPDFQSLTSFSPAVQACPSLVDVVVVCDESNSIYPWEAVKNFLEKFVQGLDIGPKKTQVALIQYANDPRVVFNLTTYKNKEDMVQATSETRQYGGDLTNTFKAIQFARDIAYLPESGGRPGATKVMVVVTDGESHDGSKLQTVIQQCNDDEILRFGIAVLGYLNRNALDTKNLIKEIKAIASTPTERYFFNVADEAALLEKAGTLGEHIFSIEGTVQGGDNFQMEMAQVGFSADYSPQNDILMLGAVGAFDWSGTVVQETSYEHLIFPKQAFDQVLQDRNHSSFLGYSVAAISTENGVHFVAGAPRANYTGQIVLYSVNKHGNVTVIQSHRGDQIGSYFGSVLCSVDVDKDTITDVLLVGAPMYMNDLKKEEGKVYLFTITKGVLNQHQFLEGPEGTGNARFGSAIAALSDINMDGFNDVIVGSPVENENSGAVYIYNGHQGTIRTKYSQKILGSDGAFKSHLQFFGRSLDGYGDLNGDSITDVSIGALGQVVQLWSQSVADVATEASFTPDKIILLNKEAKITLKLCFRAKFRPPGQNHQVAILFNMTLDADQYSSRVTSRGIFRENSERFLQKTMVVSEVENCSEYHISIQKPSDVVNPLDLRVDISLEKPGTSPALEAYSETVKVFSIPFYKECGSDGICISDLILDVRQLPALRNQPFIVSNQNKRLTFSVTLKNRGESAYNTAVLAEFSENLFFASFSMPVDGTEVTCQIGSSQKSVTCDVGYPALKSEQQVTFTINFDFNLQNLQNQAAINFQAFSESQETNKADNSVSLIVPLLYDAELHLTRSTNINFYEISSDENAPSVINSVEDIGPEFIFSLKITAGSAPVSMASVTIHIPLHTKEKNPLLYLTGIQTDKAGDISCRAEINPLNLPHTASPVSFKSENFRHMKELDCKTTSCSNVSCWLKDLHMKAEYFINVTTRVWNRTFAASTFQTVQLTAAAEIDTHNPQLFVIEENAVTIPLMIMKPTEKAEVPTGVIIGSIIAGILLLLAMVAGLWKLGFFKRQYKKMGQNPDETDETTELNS
rat α2β1 integrin on rat blood cells, sequence (P49134 21-798, chain 2 of 2): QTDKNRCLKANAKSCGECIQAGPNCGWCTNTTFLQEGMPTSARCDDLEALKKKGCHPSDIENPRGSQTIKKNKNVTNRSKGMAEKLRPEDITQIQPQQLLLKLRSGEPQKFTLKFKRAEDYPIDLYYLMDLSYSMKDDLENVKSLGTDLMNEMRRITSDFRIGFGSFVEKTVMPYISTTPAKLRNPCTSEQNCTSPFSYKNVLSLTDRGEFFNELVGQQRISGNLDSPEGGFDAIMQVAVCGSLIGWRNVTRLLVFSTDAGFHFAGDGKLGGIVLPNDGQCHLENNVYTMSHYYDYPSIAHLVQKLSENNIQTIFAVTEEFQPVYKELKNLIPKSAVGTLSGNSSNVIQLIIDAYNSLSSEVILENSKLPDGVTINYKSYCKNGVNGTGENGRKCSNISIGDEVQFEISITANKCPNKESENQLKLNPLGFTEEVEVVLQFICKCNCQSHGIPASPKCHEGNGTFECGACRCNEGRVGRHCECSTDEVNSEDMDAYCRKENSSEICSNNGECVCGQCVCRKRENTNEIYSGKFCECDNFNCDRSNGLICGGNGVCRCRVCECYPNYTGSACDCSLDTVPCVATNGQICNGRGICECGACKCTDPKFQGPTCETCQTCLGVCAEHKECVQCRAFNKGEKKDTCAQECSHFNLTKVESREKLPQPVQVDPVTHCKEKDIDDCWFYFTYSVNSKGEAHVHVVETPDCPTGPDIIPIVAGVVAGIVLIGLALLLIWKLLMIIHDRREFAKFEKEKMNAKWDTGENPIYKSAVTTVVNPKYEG

[5] = target: human α2 integrin with endogenous hamster β1 on CHO cells (human; hamster); test: cell-based or functional assay
human α2 integrin with endogenous hamster β1 on CHO cells (human; hamster), sequence (P17301 30-1181 E534K): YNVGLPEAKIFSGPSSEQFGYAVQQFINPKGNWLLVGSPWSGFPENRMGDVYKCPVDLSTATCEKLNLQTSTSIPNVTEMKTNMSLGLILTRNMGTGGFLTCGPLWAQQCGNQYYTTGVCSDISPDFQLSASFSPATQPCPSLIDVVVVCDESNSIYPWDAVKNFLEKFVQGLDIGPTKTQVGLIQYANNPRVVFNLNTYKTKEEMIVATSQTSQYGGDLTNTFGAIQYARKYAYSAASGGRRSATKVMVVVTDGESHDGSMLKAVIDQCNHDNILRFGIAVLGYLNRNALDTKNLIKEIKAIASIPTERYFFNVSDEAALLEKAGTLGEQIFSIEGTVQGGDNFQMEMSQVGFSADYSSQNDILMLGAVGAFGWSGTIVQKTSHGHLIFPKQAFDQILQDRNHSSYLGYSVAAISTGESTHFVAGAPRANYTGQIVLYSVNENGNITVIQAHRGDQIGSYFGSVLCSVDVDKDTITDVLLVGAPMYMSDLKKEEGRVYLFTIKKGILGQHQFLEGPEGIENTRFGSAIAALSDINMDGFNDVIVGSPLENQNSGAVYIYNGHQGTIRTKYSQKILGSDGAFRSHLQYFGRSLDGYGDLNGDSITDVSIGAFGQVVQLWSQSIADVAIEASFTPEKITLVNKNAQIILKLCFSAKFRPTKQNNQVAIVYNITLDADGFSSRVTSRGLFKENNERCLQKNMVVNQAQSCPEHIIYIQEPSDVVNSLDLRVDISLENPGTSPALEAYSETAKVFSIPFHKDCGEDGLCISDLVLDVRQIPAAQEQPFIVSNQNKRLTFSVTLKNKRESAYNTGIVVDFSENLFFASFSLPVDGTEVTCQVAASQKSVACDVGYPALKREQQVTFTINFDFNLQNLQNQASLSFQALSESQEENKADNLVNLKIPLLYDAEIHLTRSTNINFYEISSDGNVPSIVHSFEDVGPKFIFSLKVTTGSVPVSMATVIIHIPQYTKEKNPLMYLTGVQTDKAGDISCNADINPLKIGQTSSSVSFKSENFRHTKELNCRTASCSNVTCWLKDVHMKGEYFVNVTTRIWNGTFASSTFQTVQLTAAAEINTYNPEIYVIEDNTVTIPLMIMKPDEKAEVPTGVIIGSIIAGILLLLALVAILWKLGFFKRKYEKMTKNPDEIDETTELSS

[6] = target: T1, human platelet α2β1 integrin …; test: competition with Eu-TMC-2206 on platelet α2β1-coated plates

T1 sequence (P17301 30-1181 E534K limits assumed, chain 1 of 2): as the sequence (P17301 30-1181 E534K) above
T1 sequence (P05556 21-798 limits assumed, chain 2 of 2): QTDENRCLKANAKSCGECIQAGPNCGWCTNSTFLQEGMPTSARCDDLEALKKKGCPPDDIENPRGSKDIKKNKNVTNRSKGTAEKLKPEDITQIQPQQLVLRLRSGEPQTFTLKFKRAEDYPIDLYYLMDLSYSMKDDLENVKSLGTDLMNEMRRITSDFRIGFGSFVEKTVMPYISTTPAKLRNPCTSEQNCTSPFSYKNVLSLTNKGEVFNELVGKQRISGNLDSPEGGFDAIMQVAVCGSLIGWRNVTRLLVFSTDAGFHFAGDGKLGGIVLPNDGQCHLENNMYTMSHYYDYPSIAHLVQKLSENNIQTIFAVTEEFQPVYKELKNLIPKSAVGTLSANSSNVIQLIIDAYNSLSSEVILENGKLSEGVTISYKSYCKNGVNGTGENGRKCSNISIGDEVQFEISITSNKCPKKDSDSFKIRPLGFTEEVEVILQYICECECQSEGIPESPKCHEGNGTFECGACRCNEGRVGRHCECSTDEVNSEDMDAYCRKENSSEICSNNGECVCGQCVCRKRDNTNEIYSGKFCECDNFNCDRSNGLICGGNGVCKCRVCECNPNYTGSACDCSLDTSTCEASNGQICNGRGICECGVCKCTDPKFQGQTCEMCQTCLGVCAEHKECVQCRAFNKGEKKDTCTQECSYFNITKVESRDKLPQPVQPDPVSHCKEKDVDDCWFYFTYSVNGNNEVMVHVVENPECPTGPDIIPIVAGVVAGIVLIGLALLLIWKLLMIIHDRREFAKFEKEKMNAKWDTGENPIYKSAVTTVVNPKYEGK

B1: TMC-2206 (antibody, mouse IgG1, V domains shown)
VH: QVQLKESGPGLVAPSQSLSITCTVSGFSLTNYGIHWVRQPPGKGLEWLGVIWARGFTNYNSALMSRLIITKDNSQSQVFLKMNSLQPDDSATYFCARANDGVYYAMDYWGQGTSVTVSS
VL: QFVLTQSPAFLSASPGEKVTMTCSANSSVNYIHWYQQKSGTSPKKWIYDTSKLASGVPVRFSGSGSGTSYSLTISSMETEDAATYYCQQWTTNPLTFGAGTRVELK
notes: murine IgG1/κ secreted by hybridoma BHA2.1; labelled with Eu-N1-ITC where used as tracer; also called BHA2.1
Kd [1]: 0.374 nM | Kd [2]: 0.18 nM | binding result (GST): no binding (tested: ~1 µM) | Ki [3]: 0.22 nM | EC50, inhibiting binding of rat platelets to rat collagen Type I [4]: 6.3 nM | fold shift, rat compared to human platelets [4]: ~5 fold | EC50, inhibition of adhesion of CHO-α2 cells to collagen Type I [5]: 1.2 nM | EC50, inhibition of cell adhesion to collagen [5]: 1.5 nM | Ki [6]: 0.11 nM
